In the experiment the target is T1, MUC16 on OVCAR-3 cells (human, UniProt Q8WXI7 1-14507).
T1 construct: whole, on cells
Kind of experiment: FACS binding to OVCAR-3 cells. (In general: Flow cytometry measures light scatter and fluorescence of single cells or particles in a stream.)

B1: BSMUC16/CD3-001 (bispecific antibody, V domains shown)
VH 1: QVQLVESGGGLVKPGGSLRLSCAASGFTFSNYYMSWVRQAPGKGLEWISYISGRGSTIFYADSVKGRITISRDNAKNSLFLQMNSLRAEDTAVYFCVKDRGGYSPYWGQGTLVTVSS
VH 2: EVQLVESGGGLVQPGRSLRLSCAASGFTFDDYSMHWVRQAPGKGLEWVSGISWNSGSKGYADSVKGRFTISRDNAKNSLYLQMNSLRAEDTALYYCAKYGSGYGKFYHYGLDVWGQGTTVTVSS
VL: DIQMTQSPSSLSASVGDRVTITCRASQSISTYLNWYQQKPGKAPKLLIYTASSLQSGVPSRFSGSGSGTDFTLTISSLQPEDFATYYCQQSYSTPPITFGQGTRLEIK
notes: It was biotinylated in the ELISA and 89Zr-DFO labelled in the PET study; also called REGN4018; ubamatamab
As for B1, the binding result is on record as “binds”.
